Among the data in patent US12281147 are Kd values, retold here.

In assay [1] the target is recombinant human IL-21R His tag (Acro Biosystems) (human) (UniProt Q9HBE5). The assay can be described thus: BLI.
The target of assay [2] is wild-type human IL-21R (human) (UniProt Q9HBE5). The assay can be described thus: AlphaSeq yeast mating assay, unbuffered media.
Assay [3] has the same target. The assay can be described thus: AlphaSeq yeast mating assay, pH 7 media.
For assay [4] the target is unchanged. The assay is described as follows: AlphaSeq yeast mating assay, pH 6 media.
For assay [5] the target is unchanged. The assay can be described thus: AlphaSeq yeast mating assay, pH 5 media.
For assay [6], the target named is human interleukin 21 receptor (IL-21R) (human) (UniProt Q9HBE5). The assay is described as follows: AlphaSeq yeast mating, pH 6 media.
For assay [7] the target is unchanged. The assay can be described thus: AlphaSeq yeast mating, unbuffered media.
Assay [8] shares this target. The assay can be described thus: AlphaSeq yeast mating, pH 5 media.
Assay [9] has the same target. The assay is described as follows: AlphaSeq yeast mating, pH 7 media.

For the substance “IL-21_human_V53T Fc fusion protein (from UniProt Q9HBE4 30-162)”, in assay [1], the Kd is 7.86 nM.
“IL-21_P62T (from UniProt Q9HBE4 32-152) (ligand)”: the figures for the Kd in assay [2] and in [3] were 4500 nM and 46 nM, respectively.
In the case of “IL-21_E68R (from UniProt Q9HBE4 32-152) (ligand)”, the values for the Kd in assay [2], in [4] and in assay [5] were 6300 nM, 16 nM and 40 nM, respectively.
As to “IL-21_S109K (from UniProt Q9HBE4 32-152) (ligand)”, the Kd in assay [6] is 26 nM; in assay [7], 40000 nM; in assay [8], 43 nM.
Regarding “IL-21_S99H (from UniProt Q9HBE4 32-152) (ligand)”, the figures for the Kd in [7] and in assay [9] were 60000 nM and 25 nM, respectively.
On to “IL-21_D33Q (from UniProt Q9HBE4 32-152) (ligand)”, for which the Kd worked out at 7500 nM in assay [2], 21 nM in assay [4] and 84 nM in assay [5].
As for “IL-21_D33N (from UniProt Q9HBE4 32-152) (ligand)”, the Kd in assay [6] amounted to 27 nM; in assay [7] it was 14000 nM; in [8], 120 nM; in assay [9], 45 nM.
As to “IL-21_human_F79P Fc fusion protein (from UniProt Q9HBE4 30-162)”, in assay [1], the Kd came out at 11.1 nM.
Turning to “IL-21_R34Y (from UniProt Q9HBE4 32-152) (ligand)”, the Kd in [2] worked out at 3400 nM; in [4] it was 350 nM; in [5], 6700 nM.
Consider “IL-21_S74N (from UniProt Q9HBE4 32-152) (ligand)”, for which the Kd was 32000 nM in assay [7], 48000 nM in assay [8] and 410 nM in assay [9].
Regarding “IL-21_E59S (from UniProt Q9HBE4 32-152) (ligand)”, the Kd is 16 nM in assay [4] and 41 nM in assay [5].
With “IL-21_P107Y (from UniProt Q9HBE4 32-152) (ligand)”, the Kd was 6500 nM in assay [2], 58 nM in assay [4] and 120 nM in [5].
As to “IL-21_E72I (from UniProt Q9HBE4 32-152) (ligand)”, the dissociation constant (Kd) in assay [2] turned out to be 4700 nM; in [4], 15 nM.
Consider “IL-21_I37Q (from UniProt Q9HBE4 32-152) (ligand)”, for which the Kd in [6] was determined as 35 nM; in [8] it was 250 nM; in assay [9], 140 nM.
With “IL-21_R34G (from UniProt Q9HBE4 32-152) (ligand)”, the Kd in [6] came out at 150 nM; in assay [7] it was 9900 nM; in assay [8], 6400 nM.
As for “IL-21_I45A (from UniProt Q9HBE4 32-152) (ligand)”, the Kd was found to be 25 nM in [6] and 8400 nM in assay [7].
On to “IL-21_S86I (from UniProt Q9HBE4 32-152) (ligand)”, for which the Kd in [5] was 110 nM; in [3], 52 nM.
As for “IL-21_L120K (from UniProt Q9HBE4 32-152) (ligand)”, the Kd in [6] is 25 nM; in assay [8], 47 nM; in [9], 46 nM.
For “IL-21_D44N (from UniProt Q9HBE4 32-152) (ligand)”, the values for the Kd in assay [6], in assay [7] and in assay [8] were 92 nM, 60000 nM and 1200 nM, respectively.
Take “IL-21_Q145H (from UniProt Q9HBE4 32-152) (ligand)”: the Kd in [6] came to 54 nM; in [7], 32000 nM; in [8], 1000 nM.
As for “IL-21_S142H (from UniProt Q9HBE4 32-152) (ligand)”, the equilibrium dissociation constant (Kd) turned out to be 11000 nM in assay [7] and 51 nM in [8].
As to “IL-21_W73A (from UniProt Q9HBE4 32-152) (ligand)”, the Kd in [6] is 360 nM; in [7], 26000 nM; in assay [8], 3500 nM; in assay [9] it was 170 nM.
Substance “IL-21_R34E (from UniProt Q9HBE4 32-152) (ligand)” displayed a Kd in assay [3] of 210 nM.
Take “IL-21_W73L (from UniProt Q9HBE4 32-152) (ligand)”: the Kd in assay [6] stood at 200 nM; in [7], 33000 nM; in assay [8] it was 5200 nM.
Consider “IL-21_I95T (from UniProt Q9HBE4 32-152) (ligand)”, for which the Kd was 550 nM in assay [6], 34000 nM in assay [7], 9800 nM in assay [8] and 190 nM in assay [9].
With “IL-21_L152H (from UniProt Q9HBE4 32-151) (ligand)”, the results for the Kd in [2], in assay [4] and in assay [5] were 4400 nM, 12 nM and 26 nM, respectively.
As to “IL-21_V98H (from UniProt Q9HBE4 32-152) (ligand)”, the Kd is 26 nM in assay [6], 8800 nM in assay [7] and 170 nM in [8].
In the case of “IL-21_R34K (from UniProt Q9HBE4 32-152) (ligand)”, the Kd was found to be 47 nM in assay [6], 14000 nM in assay [7] and 390 nM in assay [8].
With “IL-21_Q150R (from UniProt Q9HBE4 32-152) (ligand)”, the results for the Kd in [6], in assay [7] and in [9] were 50 nM, 14000 nM and 94 nM, respectively.
For “IL-21_Y52Q (from UniProt Q9HBE4 32-152) (ligand)”, the Kd is 390 nM in [6], 63000 nM in assay [7], 55000 nM in assay [8] and 89 nM in assay [9].
In the same order, the values of “IL-21_N51P (from UniProt Q9HBE4 32-152) (ligand)” are 24 nM, 8500 nM, 160 nM and 47 nM.
Take “IL-21_N70H (from UniProt Q9HBE4 32-152) (ligand)”: the Kd was 4400 nM in assay [2] and 20 nM in [4].
For “IL-21_human_W73V Fc fusion protein (from UniProt Q9HBE4 30-162)”, the Kd in assay [1] was found to be 6.3 nM.
On the same count and under the same terms, to “IL-21_human_I45G Fc fusion protein (from UniProt Q9HBE4 30-162)” belongs 12 nM.
For the substance “IL-21_V57R (from UniProt Q9HBE4 32-152) (ligand)”, the Kd came out at 16 nM in assay [6], 14000 nM in [7], 50 nM in [8] and 50 nM in [9].
For the substance “IL-21_human_F76M Fc fusion protein (from UniProt Q9HBE4 30-162)”, the Kd in assay [1] is 11.8 nM.
For the substance “IL-21_V53T (from UniProt Q9HBE4 32-152) (ligand)”, the Kd in assay [7] is 30000 nM; in assay [8] it was 9600 nM.
For the substance “IL-21_I43M (from UniProt Q9HBE4 32-152) (ligand)”, the values for the Kd in [2], in assay [4] and in assay [5] were 3500 nM, 27 nM and 110 nM, respectively.
As to “IL-21_R34H (from UniProt Q9HBE4 32-152) (ligand)”, the figures for the dissociation constant (Kd) in assay [7] and in [9] were 10000 nM and 200 nM, respectively.
Turning to “IL-21_R34W (from UniProt Q9HBE4 32-152) (ligand)”, the Kd in [6] was found to be 96 nM; in assay [7], 20000 nM; in assay [9], 190 nM.
With “IL-21_W73Y (from UniProt Q9HBE4 32-152) (ligand)”, the values for the Kd in [4] and in [5] were 85 nM and 190 nM, respectively.
With “IL-21_W73Q (from UniProt Q9HBE4 32-152) (ligand)”, the Kd came to 88 nM in assay [6], 15000 nM in assay [7] and 120 nM in assay [9].
As for “IL-21_human_P108G Fc fusion protein (from UniProt Q9HBE4 30-162)”, the Kd in assay [1] amounted to 29 nM.
On to “IL-21_H118R (from UniProt Q9HBE4 32-152) (ligand)”, for which the Kd worked out at 950 nM in assay [6], 11000 nM in assay [7], 20000 nM in assay [8] and 260 nM in assay [9].
In the case of “IL-21_E72S (from UniProt Q9HBE4 32-152) (ligand)”, the Kd in assay [6] is 140 nM; in assay [8] it was 530 nM; in [9], 340 nM.
On to “IL-21_S77K (from UniProt Q9HBE4 32-152) (ligand)”, for which the equilibrium dissociation constant (Kd) in assay [7] stood at 14000 nM; in assay [8], 190 nM; in assay [9] it was 170 nM.
Turning to “IL-21_S109R (from UniProt Q9HBE4 32-152) (ligand)”, the Kd in assay [2] stood at 6000 nM; in assay [4], 15 nM; in [5] it was 36 nM.
Turning to “IL-21_D33A (from UniProt Q9HBE4 32-152) (ligand)”, in assay [9], the Kd was 83 nM.
With “IL-21_human_V53N Fc fusion protein (from UniProt Q9HBE4 30-162)”, in assay [1], the equilibrium dissociation constant (Kd) amounted to 87.1 nM.
On the same count and under the same terms, with “IL-21_human_D44P Fc fusion protein (from UniProt Q9HBE4 30-162)” the figure was 1360 nM.
Regarding “IL-21_N88K (from UniProt Q9HBE4 32-152) (ligand)”, the Kd was found to be 43 nM in assay [6], 21000 nM in [7], 170 nM in assay [8] and 140 nM in assay [9].
As to “IL-21_L120H (from UniProt Q9HBE4 32-152) (ligand)”, the Kd in assay [8] was 34 nM.
“IL-21_D33S (from UniProt Q9HBE4 32-152) (ligand)”: the Kd in assay [8] was determined as 82 nM; in assay [9], 27 nM.
Take “IL-21_human_R38K Fc fusion protein (from UniProt Q9HBE4 30-162)”: in [1], the Kd came out at 313 nM.
With “IL-21_T89L (from UniProt Q9HBE4 32-152) (ligand)”, the Kd in assay [6] amounted to 110 nM; in [7], 16000 nM; in assay [8] it was 1000 nM; in [9], 140 nM.
For “IL-21_L61I (from UniProt Q9HBE4 32-152) (ligand)”, the Kd in assay [6] was 37 nM; in assay [8] it was 370 nM; in assay [9] it was 83 nM.
